Source: patent US20120213763A1 (COUNCIL OF SCIENTIFIC AND INDUSTRIAL RESEARCH, published 2012)

B1: PEGylated SK S105C (SEQ ID NO 33) (other)
chain: IAGPEWLLDRPSVNNSQLVVSVAGTVEGTNQDISLKFFEIDLTSRPAHGGKTEQGLSPKSKPFATDSGAMSHKLEKADLLKAIQEQLIANVHSNDDYFEVIDFACDATITDRNGKVYFADKDGSVTLPTQPVQEFLLSGHVRVRPYKEKPIQNQAKSVDVEYTVQFTPLNPDDDFRPGLKDTKLLKTLAIGDTITSQELLAQAQSILNKNHPGYTIYERDSSIVTHDNDIFRTILPMDQEFTYRVKNREQAYRINKKSGLNEEINNTDLISEKYYVLKKGEKPYDPFDRSHLKLFTIKYVDVDTNELLKSEQLLTASERNLDFRDLYDPRDKAKLLYNNLDAFGIMDYTLTGKVEDNHDDTNRIITVYMGKRPEGENASYHLAYDKDRYTEEEREVYSYLRYTGTPIPDNPNDK
modifications: PEG (thiol-reactive methoxy-PEG maleimide) on Cys 105
B2: PEGylated SK D173C (SEQ ID NO 39) (other)
chain: IAGPEWLLDRPSVNNSQLVVSVAGTVEGTNQDISLKFFEIDLTSRPAHGGKTEQGLSPKSKPFATDSGAMSHKLEKADLLKAIQEQLIANVHSNDDYFEVIDFASDATITDRNGKVYFADKDGSVTLPTQPVQEFLLSGHVRVRPYKEKPIQNQAKSVDVEYTVQFTPLNPDCDFRPGLKDTKLLKTLAIGDTITSQELLAQAQSILNKNHPGYTIYERDSSIVTHDNDIFRTILPMDQEFTYRVKNREQAYRINKKSGLNEEINNTDLISEKYYVLKKGEKPYDPFDRSHLKLFTIKYVDVDTNELLKSEQLLTASERNLDFRDLYDPRDKAKLLYNNLDAFGIMDYTLTGKVEDNHDDTNRIITVYMGKRPEGENASYHLAYDKDRYTEEEREVYSYLRYTGTPIPDNPNDK
modifications: PEG (thiol-reactive methoxy-PEG maleimide) on Cys 173
B3: PEGylated SK Lys 257 Cys (SEQ ID NO 48) (other)
chain: IAGPEWLLDRPSVNNSQLVVSVAGTVEGTNQDISLKFFEIDLTSRPAHGGKTEQGLSPKSKPFATDSGAMSHKLEKADLLKAIQEQLIANVHSNDDYFEVIDFASDATITDRNGKVYFADKDGSVTLPTQPVQEFLLSGHVRVRPYKEKPIQNQAKSVDVEYTVQFTPLNPDDDFRPGLKDTKLLKTLAIGDTITSQELLAQAQSILNKNHPGYTIYERDSSIVTHDNDIFRTILPMDQEFTYRVKNREQAYRINKCSGLNEEINNTDLISEKYYVLKKGEKPYDPFDRSHLKLFTIKYVDVDTNELLKSEQLLTASERNLDFRDLYDPRDKAKLLYNNLDAFGIMDYTLTGKVEDNHDDTNRIITVYMGKRPEGENASYHLAYDKDRYTEEEREVYSYLRYTGTPIPDNPNDK
modifications: PEG (thiol-reactive methoxy-PEG maleimide) on Cys 257
B4: PEGylated SK D102C (SEQ ID NO 32) (other)
chain: IAGPEWLLDRPSVNNSQLVVSVAGTVEGTNQDISLKFFEIDLTSRPAHGGKTEQGLSPKSKPFATDSGAMSHKLEKADLLKAIQEQLIANVHSNDDYFEVICFASDATITDRNGKVYFADKDGSVTLPTQPVQEFLLSGHVRVRPYKEKPIQNQAKSVDVEYTVQFTPLNPDDDFRPGLKDTKLLKTLAIGDTITSQELLAQAQSILNKNHPGYTIYERDSSIVTHDNDIFRTILPMDQEFTYRVKNREQAYRINKKSGLNEEINNTDLISEKYYVLKKGEKPYDPFDRSHLKLFTIKYVDVDTNELLKSEQLLTASERNLDFRDLYDPRDKAKLLYNNLDAFGIMDYTLTGKVEDNHDDTNRIITVYMGKRPEGENASYHLAYDKDRYTEEEREVYSYLRYTGTPIPDNPNDK
modifications: PEG (thiol-reactive methoxy-PEG maleimide) on Cys 102
B5: PEGylated SK Ser 258 Cys (SEQ ID NO 49) (other)
chain: IAGPEWLLDRPSVNNSQLVVSVAGTVEGTNQDISLKFFEIDLTSRPAHGGKTEQGLSPKSKPFATDSGAMSHKLEKADLLKAIQEQLIANVHSNDDYFEVIDFASDATITDRNGKVYFADKDGSVTLPTQPVQEFLLSGHVRVRPYKEKPIQNQAKSVDVEYTVQFTPLNPDDDFRPGLKDTKLLKTLAIGDTITSQELLAQAQSILNKNHPGYTIYERDSSIVTHDNDIFRTILPMDQEFTYRVKNREQAYRINKKCGLNEEINNTDLISEKYYVLKKGEKPYDPFDRSHLKLFTIKYVDVDTNELLKSEQLLTASERNLDFRDLYDPRDKAKLLYNNLDAFGIMDYTLTGKVEDNHDDTNRIITVYMGKRPEGENASYHLAYDKDRYTEEEREVYSYLRYTGTPIPDNPNDK
modifications: PEG (thiol-reactive methoxy-PEG maleimide) on Cys 258
B6: PEGylated SK D95C (SEQ ID NO 30) (other)
chain: IAGPEWLLDRPSVNNSQLVVSVAGTVEGTNQDISLKFFEIDLTSRPAHGGKTEQGLSPKSKPFATDSGAMSHKLEKADLLKAIQEQLIANVHSNCDYFEVIDFASDATITDRNGKVYFADKDGSVTLPTQPVQEFLLSGHVRVRPYKEKPIQNQAKSVDVEYTVQFTPLNPDDDFRPGLKDTKLLKTLAIGDTITSQELLAQAQSILNKNHPGYTIYERDSSIVTHDNDIFRTILPMDQEFTYRVKNREQAYRINKKSGLNEEINNTDLISEKYYVLKKGEKPYDPFDRSHLKLFTIKYVDVDTNELLKSEQLLTASERNLDFRDLYDPRDKAKLLYNNLDAFGIMDYTLTGKVEDNHDDTNRIITVYMGKRPEGENASYHLAYDKDRYTEEEREVYSYLRYTGTPIPDNPNDK
modifications: PEG (thiol-reactive methoxy-PEG maleimide) on Cys 95
B7: PEGylated SK K121C (SEQ ID NO 35) (other)
chain: IAGPEWLLDRPSVNNSQLVVSVAGTVEGTNQDISLKFFEIDLTSRPAHGGKTEQGLSPKSKPFATDSGAMSHKLEKADLLKAIQEQLIANVHSNDDYFEVIDFASDATITDRNGKVYFADCDGSVTLPTQPVQEFLLSGHVRVRPYKEKPIQNQAKSVDVEYTVQFTPLNPDDDFRPGLKDTKLLKTLAIGDTITSQELLAQAQSILNKNHPGYTIYERDSSIVTHDNDIFRTILPMDQEFTYRVKNREQAYRINKKSGLNEEINNTDLISEKYYVLKKGEKPYDPFDRSHLKLFTIKYVDVDTNELLKSEQLLTASERNLDFRDLYDPRDKAKLLYNNLDAFGIMDYTLTGKVEDNHDDTNRIITVYMGKRPEGENASYHLAYDKDRYTEEEREVYSYLRYTGTPIPDNPNDK
modifications: PEG (thiol-reactive methoxy-PEG maleimide) on Cys 121
B8: PEGylated SK D96C (SEQ ID NO 31) (other)
chain: IAGPEWLLDRPSVNNSQLVVSVAGTVEGTNQDISLKFFEIDLTSRPAHGGKTEQGLSPKSKPFATDSGAMSHKLEKADLLKAIQEQLIANVHSNDCYFEVIDFASDATITDRNGKVYFADKDGSVTLPTQPVQEFLLSGHVRVRPYKEKPIQNQAKSVDVEYTVQFTPLNPDDDFRPGLKDTKLLKTLAIGDTITSQELLAQAQSILNKNHPGYTIYERDSSIVTHDNDIFRTILPMDQEFTYRVKNREQAYRINKKSGLNEEINNTDLISEKYYVLKKGEKPYDPFDRSHLKLFTIKYVDVDTNELLKSEQLLTASERNLDFRDLYDPRDKAKLLYNNLDAFGIMDYTLTGKVEDNHDDTNRIITVYMGKRPEGENASYHLAYDKDRYTEEEREVYSYLRYTGTPIPDNPNDK
modifications: PEG (thiol-reactive methoxy-PEG maleimide) on Cys 96
B9: PEGylated SK L179C (SEQ ID NO 41) (other)
chain: IAGPEWLLDRPSVNNSQLVVSVAGTVEGTNQDISLKFFEIDLTSRPAHGGKTEQGLSPKSKPFATDSGAMSHKLEKADLLKAIQEQLIANVHSNDDYFEVIDFASDATITDRNGKVYFADKDGSVTLPTQPVQEFLLSGHVRVRPYKEKPIQNQAKSVDVEYTVQFTPLNPDDDFRPGCKDTKLLKTLAIGDTITSQELLAQAQSILNKNHPGYTIYERDSSIVTHDNDIFRTILPMDQEFTYRVKNREQAYRINKKSGLNEEINNTDLISEKYYVLKKGEKPYDPFDRSHLKLFTIKYVDVDTNELLKSEQLLTASERNLDFRDLYDPRDKAKLLYNNLDAFGIMDYTLTGKVEDNHDDTNRIITVYMGKRPEGENASYHLAYDKDRYTEEEREVYSYLRYTGTPIPDNPNDK
modifications: PEG (thiol-reactive methoxy-PEG maleimide) on Cys 179
B10: PEGylated SK L260C (SEQ ID NO 50) (other)
chain: IAGPEWLLDRPSVNNSQLVVSVAGTVEGTNQDISLKFFEIDLTSRPAHGGKTEQGLSPKSKPFATDSGAMSHKLEKADLLKAIQEQLIANVHSNDDYFEVIDFASDATITDRNGKVYFADKDGSVTLPTQPVQEFLLSGHVRVRPYKEKPIQNQAKSVDVEYTVQFTPLNPDDDFRPGLKDTKLLKTLAIGDTITSQELLAQAQSILNKNHPGYTIYERDSSIVTHDNDIFRTILPMDQEFTYRVKNREQAYRINKKSGCNEEINNTDLISEKYYVLKKGEKPYDPFDRSHLKLFTIKYVDVDTNELLKSEQLLTASERNLDFRDLYDPRDKAKLLYNNLDAFGIMDYTLTGKVEDNHDDTNRIITVYMGKRPEGENASYHLAYDKDRYTEEEREVYSYLRYTGTPIPDNPNDK
modifications: PEG (thiol-reactive methoxy-PEG maleimide) on Cys 260
B11: PEGylated SK N255C (SEQ ID NO 46) (other)
chain: IAGPEWLLDRPSVNNSQLVVSVAGTVEGTNQDISLKFFEIDLTSRPAHGGKTEQGLSPKSKPFATDSGAMSHKLEKADLLKAIQEQLIANVHSNDDYFEVIDFASDATITDRNGKVYFADKDGSVTLPTQPVQEFLLSGHVRVRPYKEKPIQNQAKSVDVEYTVQFTPLNPDDDFRPGLKDTKLLKTLAIGDTITSQELLAQAQSILNKNHPGYTIYERDSSIVTHDNDIFRTILPMDQEFTYRVKNREQAYRICKKSGLNEEINNTDLISEKYYVLKKGEKPYDPFDRSHLKLFTIKYVDVDTNELLKSEQLLTASERNLDFRDLYDPRDKAKLLYNNLDAFGIMDYTLTGKVEDNHDDTNRIITVYMGKRPEGENASYHLAYDKDRYTEEEREVYSYLRYTGTPIPDNPNDK
modifications: PEG (thiol-reactive methoxy-PEG maleimide) on Cys 255
B12: PEGylated SK C-Cys (SEQ ID NO 490), Cys at C + 1 position in SK (other)
chain: IAGPEWLLDRPSVNNSQLVVSVAGTVEGTNQDISLKFFEIDLTSRPAHGGKTEQGLSPKSKPFATDSGAMSHKLEKADLLKAIQEQLIANVHSNDDYFEVIDFASDATITDRNGKVYFADKDGSVTLPTQPVQEFLLSGHVRVRPYKEKPIQNQAKSVDVEYTVQFTPLNPDDDFRPGLKDTKLLKTLAIGDTITSQELLAQAQSILNKNHPGYTIYERDSSIVTHDNDIFRTILPMDQEFTYRVKNREQAYRINKKSGLNEEINNTDLISEKYYVLKKGEKPYDPFDRSHLKLFTIKYVDVDTNELLKSEQLLTASERNLDFRDLYDPRDKAKLLYNNLDAFGIMDYTLTGKVEDNHDDTNRIITVYMGKRPEGENASYHLAYDKDRYTEEEREVYSYLRYTGTPIPDNPNDKC
modifications: PEG (thiol-reactive methoxy-PEG maleimide) on the Cys at C + 1 position
B13: PEGylated SK N-Cys (SEQ ID NO 489), Cys at N - 1 position in SK (other)
chain: CIAGPEWLLDRPSVNNSQLVVSVAGTVEGTNQDISLKFFEIDLTSRPAHGGKTEQGLSPKSKPFATDSGAMSHKLEKADLLKAIQEQLIANVHSNDDYFEVIDFASDATITDRNGKVYFADKDGSVTLPTQPVQEFLLSGHVRVRPYKEKPIQNQAKSVDVEYTVQFTPLNPDDDFRPGLKDTKLLKTLAIGDTITSQELLAQAQSILNKNHPGYTIYERDSSIVTHDNDIFRTILPMDQEFTYRVKNREQAYRINKKSGLNEEINNTDLISEKYYVLKKGEKPYDPFDRSHLKLFTIKYVDVDTNELLKSEQLLTASERNLDFRDLYDPRDKAKLLYNNLDAFGIMDYTLTGKVEDNHDDTNRIITVYMGKRPEGENASYHLAYDKDRYTEEEREVYSYLRYTGTPIPDNPNDK
modifications: PEG (thiol-reactive methoxy-PEG maleimide) on the Cys at N - 1 position

Target: human plasminogen (HPG) (human, UniProt P00747 97-810)
Sequence (P00747 97-810): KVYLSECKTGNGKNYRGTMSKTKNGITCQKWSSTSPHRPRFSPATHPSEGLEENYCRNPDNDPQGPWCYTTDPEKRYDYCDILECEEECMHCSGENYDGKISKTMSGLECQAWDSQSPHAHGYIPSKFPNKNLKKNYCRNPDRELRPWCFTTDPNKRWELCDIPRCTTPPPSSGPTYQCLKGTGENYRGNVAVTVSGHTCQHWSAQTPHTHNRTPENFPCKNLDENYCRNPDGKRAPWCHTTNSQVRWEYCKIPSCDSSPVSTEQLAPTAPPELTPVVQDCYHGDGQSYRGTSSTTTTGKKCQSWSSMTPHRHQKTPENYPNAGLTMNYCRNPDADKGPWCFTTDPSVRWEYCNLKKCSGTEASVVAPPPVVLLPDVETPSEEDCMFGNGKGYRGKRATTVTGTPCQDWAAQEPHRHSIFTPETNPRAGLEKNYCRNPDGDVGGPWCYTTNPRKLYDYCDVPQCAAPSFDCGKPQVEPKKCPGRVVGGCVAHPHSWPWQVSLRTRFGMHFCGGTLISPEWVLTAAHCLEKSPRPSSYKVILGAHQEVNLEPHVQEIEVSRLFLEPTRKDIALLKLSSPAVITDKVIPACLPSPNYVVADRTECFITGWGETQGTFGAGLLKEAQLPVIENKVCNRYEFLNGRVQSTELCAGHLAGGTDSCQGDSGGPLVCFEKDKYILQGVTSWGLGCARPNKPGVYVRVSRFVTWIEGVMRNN
Assay: cell-based or functional assay

| Binder | % Plasminogen activation [%] |
| --- | --- |
| B1 | 76 |
| B2 | 72 |
| B3 | 92 |
| B4 | 74 |
| B5 | 100 |
| B6 | 96 |
| B7 | 95 |
| B8 | 98 |
| B9 | 22 |
| B10 | 100 |
| B11 | 98 |
| B12 | 95 |
| B13 | 88 |
